For one assay, the target named is denosumab (XGEVA). The experiment in a line: cell-based or functional assay.
The target in another assay is adalimumab (Humira). The experiment in a line: cell-based or functional assay.

For the substance “pCART144 (IdeZ with N terminal methionine and histidine tag) (enzyme)”, in the assay with denosumab (XGEVA), the IgG2 (denosumab) cleavage, SDS-PAGE titration: enzyme concentration giving a dominating F(ab')2 band turned out to be 3.3 µg/mL and the IgG2 (denosumab) cleavage, SDS-PAGE titration: enzyme concentration giving a single intense scIgG band turned out to be 0.12 µg/mL. In the assay with adalimumab (Humira), the IgG1 (adalimumab) cleavage, SDS-PAGE titration: enzyme concentration of equal cleavage came out at 4.6 ng/mL.

For the origin of these results see patent publication US20230302100A1.
